Assay results as given in paper PMC4395482 (The Journal of Cell Biology, 2015).

Target: the molecule itself
Assay: crystal structure

B1: hSac2 domain of human Sac2 (aa 593–760) (domain or fragment, UniProt Q9Y2H2 593-760, looked up)
chain: RSHQELISQLLQSYMKLLLPDDEKFHGGWALIDCDPSLIDATHRDVDVLLLLSNSAYYVAYYDDEVDKVNQYQRLSLENLEKIEIGPEPTLFGKPKFSCMRLHYRYKEASGYFHTLRAVMRNPEEDGKDTLQCIAEMLQITKQAMGSDLPIIEKKLERKSSKPHEDII
modifications: selenomethionine (selenomethionine protein crystals)
- stoichiometry N: 2
